No end group written: not given here. *: point of attachment. Biotin = O=C1N[C@H]2[C@H](CS[C@H]2CCCCC(=O)*)N1

What all share (assay type): biochemical
One assay concerns the target Abl (Homo sapiens, UniProt P00519). The assay can be described thus: ELISA specificity assay, phosphorylation by Abl. Conditions: conditions similar to ALK ELISA. The procedure:
(§1) Referring now to FIG. 1 which illustrates ALAStide-A (SEQ. ID NO. 1) and ALAStide-B (SEQ. ID NO. 2) being phosphorylated by ALK kinase in vitro, the results are obtained by an enzyme-linked immunosorbent assay (ELISA). […] Total reaction volume is 50 μL, and reaction temperature is set between 35-38° C. At selected time points, 5 μL, sample was taken out and quenched in 20 μL 40 mM EDTA solution. The quenched samples were then used to perform ELISA assay.
(§2) The specificity of the ALK-specific biosensors, ALAStide-A and ALAStide-B is shown in an ELISA assay, with YFF peptide used as a positive and negative control. The ALK-specific biosensors were assayed for phosphorylation activity against ALK, Lyn, Abl, and Csk. YFF peptide, whose kinase specificity (as reported in Biochemistry 44, 8533-8542, 2005) is used as a reference. The experimental condition may be similar to those described for the ELISA assay above.
For orientation: An ELISA detects its analyte on a solid surface through an enzyme-linked reagent.

The target in another assay is Csk (Homo sapiens, UniProt P41240). In words: ELISA specificity assay, phosphorylation by Csk. Conditions: conditions similar to ALK ELISA. The procedure:
as §1, §2

A further assay has as its target Lyn (Homo sapiens, UniProt P07948). In words: ELISA specificity assay, phosphorylation by Lyn. Conditions: conditions similar to ALK ELISA. On the procedure:
as §1, §2

Another assay deals with ALK kinase (Homo sapiens, UniProt Q9UM73). In words: ELISA assay of peptide phosphorylation by ALK kinase in vitro. The conditions noted are these: 25 μM peptides, 0.1 unit kinase, 100 μM ATP, 10 mM Mg2+, pH 7.5, 35-38° C. The procedure: as §1
Sequence of ALK kinase (Q9UM73 19-1620): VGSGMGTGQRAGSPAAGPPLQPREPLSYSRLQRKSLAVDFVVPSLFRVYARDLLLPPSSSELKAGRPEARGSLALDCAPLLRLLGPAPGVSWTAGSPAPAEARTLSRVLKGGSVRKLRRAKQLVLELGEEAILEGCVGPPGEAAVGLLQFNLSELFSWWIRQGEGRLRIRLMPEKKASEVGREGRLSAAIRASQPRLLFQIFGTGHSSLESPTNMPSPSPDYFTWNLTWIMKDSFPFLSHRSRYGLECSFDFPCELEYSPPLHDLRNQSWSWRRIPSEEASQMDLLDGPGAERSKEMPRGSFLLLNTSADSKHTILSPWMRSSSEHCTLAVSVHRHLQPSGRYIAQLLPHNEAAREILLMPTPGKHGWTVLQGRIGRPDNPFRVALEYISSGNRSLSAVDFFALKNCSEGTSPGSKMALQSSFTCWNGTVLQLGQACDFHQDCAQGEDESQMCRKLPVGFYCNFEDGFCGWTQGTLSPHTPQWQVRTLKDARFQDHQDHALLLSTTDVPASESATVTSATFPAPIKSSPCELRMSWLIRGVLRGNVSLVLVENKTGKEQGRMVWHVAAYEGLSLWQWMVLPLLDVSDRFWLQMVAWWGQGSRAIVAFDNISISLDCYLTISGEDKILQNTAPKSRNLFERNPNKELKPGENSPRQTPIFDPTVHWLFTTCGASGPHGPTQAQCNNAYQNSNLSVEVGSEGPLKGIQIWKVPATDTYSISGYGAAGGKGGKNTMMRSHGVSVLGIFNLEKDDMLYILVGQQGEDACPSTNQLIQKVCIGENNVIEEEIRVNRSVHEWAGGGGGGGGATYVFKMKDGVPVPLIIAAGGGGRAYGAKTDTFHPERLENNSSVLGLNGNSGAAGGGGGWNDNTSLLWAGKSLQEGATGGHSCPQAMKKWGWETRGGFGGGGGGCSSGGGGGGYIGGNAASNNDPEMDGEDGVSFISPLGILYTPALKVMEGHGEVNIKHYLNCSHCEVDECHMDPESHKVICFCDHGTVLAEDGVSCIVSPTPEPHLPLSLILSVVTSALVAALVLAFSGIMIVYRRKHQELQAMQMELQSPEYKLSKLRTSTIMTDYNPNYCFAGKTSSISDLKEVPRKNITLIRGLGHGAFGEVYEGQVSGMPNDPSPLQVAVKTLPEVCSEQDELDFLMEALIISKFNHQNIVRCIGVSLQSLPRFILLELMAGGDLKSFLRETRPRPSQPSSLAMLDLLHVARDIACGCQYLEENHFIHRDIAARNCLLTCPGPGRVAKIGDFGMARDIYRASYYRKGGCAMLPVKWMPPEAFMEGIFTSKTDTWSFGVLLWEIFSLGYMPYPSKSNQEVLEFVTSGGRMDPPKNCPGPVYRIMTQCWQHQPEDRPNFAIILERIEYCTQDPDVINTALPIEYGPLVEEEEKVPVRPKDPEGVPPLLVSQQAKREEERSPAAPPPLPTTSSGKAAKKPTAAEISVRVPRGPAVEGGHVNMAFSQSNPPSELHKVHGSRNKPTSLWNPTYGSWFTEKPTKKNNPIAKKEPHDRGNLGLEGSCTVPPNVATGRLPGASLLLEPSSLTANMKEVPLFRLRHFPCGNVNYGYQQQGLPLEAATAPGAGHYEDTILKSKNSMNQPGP

Sequence of Csk (P41240 whole entry, species assumed): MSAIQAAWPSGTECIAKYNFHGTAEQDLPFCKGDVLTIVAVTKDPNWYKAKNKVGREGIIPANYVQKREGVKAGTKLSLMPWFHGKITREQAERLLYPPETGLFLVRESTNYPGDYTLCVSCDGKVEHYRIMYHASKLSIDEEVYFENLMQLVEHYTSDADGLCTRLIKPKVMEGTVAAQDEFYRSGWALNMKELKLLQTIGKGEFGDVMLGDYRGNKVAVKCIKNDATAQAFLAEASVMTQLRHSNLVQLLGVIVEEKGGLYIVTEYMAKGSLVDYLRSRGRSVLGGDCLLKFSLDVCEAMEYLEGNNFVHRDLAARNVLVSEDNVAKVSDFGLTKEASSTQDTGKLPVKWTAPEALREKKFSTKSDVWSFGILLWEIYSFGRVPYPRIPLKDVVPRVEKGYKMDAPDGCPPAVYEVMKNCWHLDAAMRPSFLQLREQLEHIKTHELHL
Sequence of Abl (P00519 whole entry, species assumed): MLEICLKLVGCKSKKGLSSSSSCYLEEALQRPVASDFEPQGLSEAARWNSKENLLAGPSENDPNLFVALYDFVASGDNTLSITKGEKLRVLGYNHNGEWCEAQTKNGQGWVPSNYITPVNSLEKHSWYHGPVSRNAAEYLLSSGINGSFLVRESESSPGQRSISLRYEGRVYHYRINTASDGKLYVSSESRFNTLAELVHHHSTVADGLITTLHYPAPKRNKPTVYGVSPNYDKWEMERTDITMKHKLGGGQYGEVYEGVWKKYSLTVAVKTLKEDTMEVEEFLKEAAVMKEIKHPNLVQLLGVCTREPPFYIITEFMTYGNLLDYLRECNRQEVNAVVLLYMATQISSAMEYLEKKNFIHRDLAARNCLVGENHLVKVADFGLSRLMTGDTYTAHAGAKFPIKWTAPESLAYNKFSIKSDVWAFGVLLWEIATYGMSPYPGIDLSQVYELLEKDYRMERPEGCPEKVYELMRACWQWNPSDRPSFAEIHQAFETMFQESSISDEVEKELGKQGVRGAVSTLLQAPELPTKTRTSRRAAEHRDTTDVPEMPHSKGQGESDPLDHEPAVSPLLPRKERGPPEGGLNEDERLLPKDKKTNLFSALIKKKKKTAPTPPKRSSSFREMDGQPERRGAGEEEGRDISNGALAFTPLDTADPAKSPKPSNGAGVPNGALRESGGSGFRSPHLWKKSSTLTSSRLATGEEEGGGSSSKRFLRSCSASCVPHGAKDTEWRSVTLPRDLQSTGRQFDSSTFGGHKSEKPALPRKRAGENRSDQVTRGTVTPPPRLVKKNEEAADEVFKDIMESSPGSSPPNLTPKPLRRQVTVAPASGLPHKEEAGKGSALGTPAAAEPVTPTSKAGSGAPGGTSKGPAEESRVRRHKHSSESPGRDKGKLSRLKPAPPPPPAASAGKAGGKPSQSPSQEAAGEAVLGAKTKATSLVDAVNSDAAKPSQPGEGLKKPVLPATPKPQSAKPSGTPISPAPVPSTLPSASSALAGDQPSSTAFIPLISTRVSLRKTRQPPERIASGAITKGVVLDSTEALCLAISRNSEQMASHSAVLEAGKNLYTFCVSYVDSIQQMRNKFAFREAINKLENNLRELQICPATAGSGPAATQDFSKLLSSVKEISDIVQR
Sequence of Lyn (P07948 whole entry, species assumed): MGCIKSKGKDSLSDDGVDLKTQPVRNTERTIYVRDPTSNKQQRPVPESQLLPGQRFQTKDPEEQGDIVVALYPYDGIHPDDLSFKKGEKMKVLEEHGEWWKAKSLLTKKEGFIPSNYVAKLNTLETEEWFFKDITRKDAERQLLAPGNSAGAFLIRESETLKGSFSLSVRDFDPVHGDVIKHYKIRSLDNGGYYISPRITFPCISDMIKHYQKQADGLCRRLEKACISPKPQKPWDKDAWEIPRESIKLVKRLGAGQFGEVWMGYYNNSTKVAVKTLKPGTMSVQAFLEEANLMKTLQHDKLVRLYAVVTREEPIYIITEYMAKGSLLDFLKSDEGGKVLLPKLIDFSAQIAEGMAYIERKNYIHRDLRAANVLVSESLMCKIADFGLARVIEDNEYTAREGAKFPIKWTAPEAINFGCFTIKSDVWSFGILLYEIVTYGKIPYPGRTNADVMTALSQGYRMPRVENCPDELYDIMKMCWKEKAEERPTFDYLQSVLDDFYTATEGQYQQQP

Consider “FGMARDIYRASFFRKGGKbGG (FGMARDIYRASFFRKGGK(Biotin)GG) [YFF peptide, known peptide substrate of ALK in the literature, reference compound]”, for which the “phosphorylation by Abl (ELISA)” value with Abl is listed as “lack of affinity”. Besides, the “phosphorylation by Csk (ELISA)” value with Csk is reported as “lack of affinity”. Moreover, the “phosphorylation by Lyn (ELISA)” value with Lyn is “lack of affinity”.

For the substance “FDMDRDIYTNTFFRKGGKbGG (FDMDRDIYTNTFFRKGGK(Biotin)GG) [ALAStide-B, ALK-specific biosensor peptide; Kb is biotinylated lysine]”, the “phosphorylation by Abl (ELISA)” value with Abl is “not phosphorylated”. Also, the “phosphorylation by Csk (ELISA)” value in the assay with Csk is reported as “not phosphorylated”. Further, the “phosphorylation by Lyn (ELISA)” value in the assay with Lyn was “not phosphorylated”. In the assay with ALK kinase, the “phosphorylation by ALK kinase (ELISA), compared with YFF peptide” value is “comparable phosphorylation level with YFF peptide”.

With “FDMDRDIYRMSFFRKGGKbGG (FDMDRDIYRMSFFRKGGK(Biotin)GG) [ALAStide-A, ALK-specific biosensor peptide; Kb is biotinylated lysine]”, the “phosphorylation by Abl (ELISA)” value in the assay with Abl is “not phosphorylated”. In addition, the “phosphorylation by Csk (ELISA)” value in the assay with Csk was “not phosphorylated”. The “phosphorylation by Lyn (ELISA)” value with Lyn is listed as “not phosphorylated”. In the assay with ALK kinase, the “phosphorylation by ALK kinase (ELISA), compared with YFF peptide” value is “higher phosphorylation activity than YFF and ALAStide-B”.

The values above are taken from patent US10160993B2, “Tyrosine kinase biosensors and methods of use” (Purdue Research Foundation, priority 2014, dated 2018).
